Measured values reported in PMC8762332.
Values belong to the molecule of their own block, whether it stands above or below them.

Experiments:
[1] = molecular target: 40S ribosomal subunit in ribosome complexes (40S/PIC, monosomes, polysomes), marked by Rps2 (S. cerevisiae (endogenous in yeast)) (UniProt P25443); assay: co-sedimentation; lysates of cycloheximide-treated yeast crosslinked with 1% formaldehyde (30 min on ice, quenched with 0.1 M glycine), 5–45% sucrose gradients, 10 fractions of 1 ml, western blotting of fractions (anti-His for eIF4B, Rps2, eIF4A, eIF4G)
UniProt P25443, sequence (P25443 whole entry, looked up, tested part not stated, one chain of several): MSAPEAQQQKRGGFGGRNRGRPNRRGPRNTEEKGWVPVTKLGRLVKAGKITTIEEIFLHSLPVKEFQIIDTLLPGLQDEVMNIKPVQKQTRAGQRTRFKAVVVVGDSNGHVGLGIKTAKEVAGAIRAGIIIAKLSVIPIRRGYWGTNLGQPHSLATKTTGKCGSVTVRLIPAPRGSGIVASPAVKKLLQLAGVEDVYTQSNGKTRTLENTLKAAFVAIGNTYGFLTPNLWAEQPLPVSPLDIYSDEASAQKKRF

[2] = molecular target: 40S ribosomal subunit in ribosome complexes (40S/PIC, monosomes, polysomes), marked by Rps2 (S. cerevisiae (endogenous in yeast)) (UniProt P25443); assay: co-sedimentation; yeast cultures crosslinked with 2% formaldehyde for 60 min on ice before lysis, 7.5–30% sucrose gradients (41,000 rpm, 5 h, SW-41), 0.63 ml fractions up to the 40S peak analysed by western blotting

- percent of the protein in fractions that lack 40S subunits and ribosomes [1]: 80%
- percent reduction of eIF4B in Rps2-containing fractions against WT [2]: 93%
Molecule: yeast eIF4B lacking the N-terminal domain, C-terminal hexahistidine tag (domain or fragment)

- percent of the protein in Rps2/40S subunit-containing fractions [1]: 55%
B1: yeast eukaryotic initiation factor 4B, wild type, C-terminal hexahistidine tag (natural protein)
chain: MAPPKKTVKKMDLTSFLNDDTFGSSWAEEDVDLNKITIPIETANANTIPLSELAHAKNNSNNTRSGGFGGSFGGRSRLDPALGGGSSDRREEYPVPDAPPYRAVINNIPWDITPEGVQAWVEDGLVKPEAVEEVVLPKNLRDPTRLKGNAFVTLKERADLVAVLKFNGTKLNERTVYVSVAAPRRGGGADVDWSSARGSNFQGDGREDAPDLDWGAARGSNFRGPRREREEVDIDWTAARGSNFQGSSRPPRREREEVDIDWSAARGSNFQGSSRPPRREREEPDIDWSAARGSNFQSSSRPPRREREEPDIDWSAARGSNFQSSSRPPRREREKEEPALDWGAARGAQFGKPQQTKNTYKDRSLTNKKTTDEQPKIQKSVYDVLRTEDDDEDEEAEKQNGDAKENKVDAAVEKLQDKTAQLTVEDGDNWEVVGKK
